Measurements as given in the supplement of paper PMC9732359.
± gives the uncertainty stated by the source.

Assay: protein stability index of a GFP-peptide fusion (yeast GPS) (PSI 1-4); higher = more stable; sorted into four equal gates, so the index is relative within each strain
Method in brief: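 Mid-log yeast cultures in leucine-free medium, carrying a pooled plasmid library, were sorted into four equal gates by their GFP/Cherry fluorescence ratio. Each plasmid expressed Cherry along with GFP fused upstream of a tiled 17-residue yeast protein peptide. Plasmids recovered from each gate were PCR-amplified and Illumina-sequenced, with reads assigned to strains by barcodes. The protein stability index was obtained by summing each gate's read frequency weighted by its gate number.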

| Sequence | protein stability index (doa10∆) | protein stability index (pdr5∆) | protein stability index (san1∆) | protein stability index (ubr1∆) |
| --- | --- | --- | --- | --- |
| REHERVILKQILQILDQ [SWP82] | 2.83 ± 0.077 | 2.86 ± 0.066 | 2.84 ± 0.063 | 2.8 ± 0.046 |
| REHFEKTVAVDSVFEQN [RPL3] | 2.94 ± 0.12 | 2.93 ± 0.18 | 2.12 ± 0.12 | 2.37 ± 0.12 |
| REIVMPAHTKYMLIEEA [ITC1] | 3.2 ± 0.1 | 3.42 ± 0.1 | 3.03 ± 0.071 | 3.31 ± 0.13 |
| RELYKYVRKHDPLNSNI [PRP28] | 2.96 ± 0.083 | 2.86 ± 0.082 | 2.96 ± 0.05 | 3.16 ± 0.09 |
| REQASKSKKSWLNRLNN [YMR153W/NUP53] | 2.31 ± 0.11 | 2.45 ± 0.099 | 1.62 ± 0.15 | 2.92 ± 0.063 |
| RESTKALTRGEALLVVL [RPS12] |  | 3.49 ± 0.16 |  | 3.4 ± 0.045 |
| REVGTKFTTVLAKILAR [ECM29] | 1.39 ± 0.086 | 1.52 ± 0.06 | 1.88 ± 0.097 | 1.44 ± 0.05 |
| RFAPDNQVTDSSQLNKL [SIR3] | 2.9 ± 0.096 | 3.1 ± 0.11 | 2.98 ± 0.12 | 3.04 ± 0.14 |
| RFNFISKYFIIDSFFLY [YMR129W/POM152] | 1.58 ± 0.061 | 1.24 ± 0.072 | 1.31 ± 0.12 | 1.12 ± 0.059 |
| RFQDPYVAIVVDPLKSL [RRI1] |  | 2.79 ± 0.13 | 2.26 ± 0.2 | 2.69 ± 0.13 |
| RGFNNQIMQLKKICNHP [SNF2] | 3.13 ± 0.066 | 3.15 ± 0.067 | 3.07 ± 0.049 | 3.2 ± 0.06 |
| RGKDCTVVISQKKVPDK [SCL1] | 2.59 ± 0.086 | 2.83 ± 0.076 | 2.83 ± 0.074 | 2.71 ± 0.051 |
| RGRNDTLERVHLSYCSN [GRR1] | 3.01 ± 0.055 | 3.2 ± 0.068 | 2.69 ± 0.1 | 2.98 ± 0.046 |
| RHQQLLRSRLQQQQQQQ [SNF5] | 2.47 ± 0.078 | 2.54 ± 0.078 | 2.4 ± 0.12 | 2.67 ± 0.072 |
| RIFISNVSENQPWQMDT [SNF12] | 2.98 ± 0.052 | 3.17 ± 0.072 | 3.09 ± 0.04 | 3.11 ± 0.054 |
| RIGRIEDVTPVPSDSTR [RPS14A] | 2.85 ± 0.082 | 3.15 ± 0.065 | 3.26 ± 0.053 | 3.16 ± 0.052 |
| RIIREMFAYAKEHEPCI [RPT4] | 2.43 ± 0.1 | 2.65 ± 0.12 | 2.83 ± 0.11 | 2.58 ± 0.093 |
| RIKNEQSALSQIIRLFY [ISW2] | 3.08 ± 0.1 | 3.09 ± 0.1 | 2.76 ± 0.076 | 3.06 ± 0.073 |
| RIQKIISKRKEELEEEF [YIL149C/MLP2] | 3.13 ± 0.12 | 2.47 ± 0.13 | 3.02 ± 0.18 | 2.86 ± 0.13 |
| RKDLRDKLICSIDPPGC [DIS3] | 2.96 ± 0.066 | 2.91 ± 0.047 | 2.67 ± 0.055 | 3.03 ± 0.051 |

| Sequence | protein stability index (doa10∆) | protein stability index (pdr5∆) | protein stability index (san1∆) | protein stability index (ubr1∆) |
| --- | --- | --- | --- | --- |
| RKEGPTIYYVDSDGTRL [PRE2] | 2.24 ± 0.048 | 1.9 ± 0.034 | 2.03 ± 0.074 | 2.32 ± 0.034 |
| RKHPGGRGMAGGQHHHR [RPL28] | 2.94 ± 0.14 | 2.6 ± 0.26 | 3.03 ± 0.1 | 3.18 ± 0.16 |
| RKHTRGDVSSGLFEKST [BRN1] | 2.81 ± 0.16 | 3.27 ± 0.1 | 2.5 ± 0.14 |  |
| RKIEAETRNGKVKNQGA [YCS4] | 2.89 ± 0.14 | 3.43 ± 0.12 | 3.12 ± 0.12 | 3.22 ± 0.13 |
| RKIEFPSLRDRRERRLI [RPT3] | 3.31 ± 0.052 | 3.34 ± 0.086 | 2.68 ± 0.066 | 3.32 ± 0.042 |
| RKIGISIDDHPYNLNLF [RPC31] | 1.75 ± 0.043 | 2.04 ± 0.05 | 1.71 ± 0.098 | 1.9 ± 0.044 |
| RKILNFKKDLVIVLSNI [SWI1] | 2.52 ± 0.1 | 2.25 ± 0.07 | 2.11 ± 0.14 | 2.71 ± 0.087 |
| RKIVFRCSECIKILGSE [RPN4] | 1.22 ± 0.14 | 1.88 ± 0.25 |  |  |
| RKKTEAVARLKSMNKSA [SNF2] | 1.68 ± 0.074 | 2.17 ± 0.085 | 2.23 ± 0.1 | 2.08 ± 0.065 |
| RKNYMHVKNFGFANSLT [YML031W/NDC1] | 1.18 ± 0.11 | 1.9 ± 0.11 | 2.3 ± 0.14 | 2.85 ± 0.063 |
| RKSDQQDVLKGSSASSR [POP1] | 3.29 ± 0.12 | 3.06 ± 0.1 | 3.14 ± 0.071 | 3.31 ± 0.096 |
| RKSVFAPLNFNPIIENN [SSN2] | 2.65 ± 0.058 | 2.98 ± 0.073 | 2.75 ± 0.06 | 2.71 ± 0.069 |
| RKVVKPSSLNSDKIPYV [SRB4] | 2.74 ± 0.23 | 3.23 ± 0.13 | 3.06 ± 0.18 | 3.23 ± 0.12 |
| RLAAPHHWLLDKLSGCY [RPS4A] | 2.31 ± 0.23 | 2.2 ± 0.1 | 2.26 ± 0.14 | 2.35 ± 0.15 |
| RLEEESSWQIYSDENDP [RRP4] |  | 2.93 ± 0.16 | 2.93 ± 0.24 | 3.53 ± 0.16 |
| RLFNNVKIHSQESLLSR [SRP72] | 2.61 ± 0.076 | 2 ± 0.06 | 2.44 ± 0.085 | 2.18 ± 0.044 |
| RLGSFTRAKAKVEEMNN [RPL36A] |  | 2.61 ± 0.2 | 2.85 ± 0.19 | 2.87 ± 0.28 |
| RLLPINVNKKALGQDTE [MED11] | 2.84 ± 0.061 | 2.96 ± 0.062 | 2.89 ± 0.035 | 3.16 ± 0.052 |
| RLNFNQNSSKIVNVLSK [SWI3] | 2.56 ± 0.057 | 2.7 ± 0.051 | 3.04 ± 0.048 | 2.93 ± 0.042 |
